The target in the assay is covalently-linked IL-2/SD-01 complex (human, UniProt P60568 21-153). The experiment in a line: SPR. (SPR reads the build-up and loss of mass on a sensor chip optically.)

The results in this text go back to publication PMC10925001 (2024).

B1: his-tagged human IL-2Rα (receptor)
chain: ELCDDDPPEIPHATFKAMAYKEGTMLNCECKRGFRRIKSGSLYMLCTGNSSHSSWDNQCQCTSSATRNTTKQVTPQPEEQKERKTTEMQSPMQPVDQASLPGHCREPPPWENEATERIYHFVVGQMVYYQCVQGYRALHRGPAESVCKMTHGKTRWTQPQLICTGEMETSQFPGEEKPQASPEGRPESETSCLVTTTDFQIQTEMAATMETSIFTTEYQ
Take B1: the koff amounted to 0.0048 s⁻¹.

In general, koff refers to the first-order rate constant of dissociation. The low end stands for a long-lived complex, the high end for a short-lived complex.
